Assay [1] concerns the target T1, monkey SEMA4D, full length, on CHO-K1 cells (CHO-K1 cSEMA4D) (monkey).
T1 construct: whole, on cells; also called monkey SEMA4D recombinant cells
In words: FACS, CHO-K1 cSEMA4D cells; Ab 0.107 nM. The protocol:
(§1) After the cells were counted, they were diluted with PBS to 2×10⁶ cells per milliliter. After washing, 100 μL of diluted and purified leading antibodies was added to each well and the plate was incubated for 1 hour on ice. […] Cells were washed 2 times by centrifugation with FACS buffer. The cells were suspended with 200 μL of FACS buffer, FACS (FACS Verse, purchased from BD) was used to detect and analyze the results.

In assay [2] the target is T1, monkey SEMA4D, full length, on CHO-K1 …. Description: FACS, CHO-K1 cSEMA4D cells; Ab 0.534 nM. Here is the method: as §1
(In general: In flow cytometry, cells or beads pass a laser one at a time.)

Assay [3] addresses T2, human SEMA4D, full length, on CHO-K1 cells (CHO-K1 hSEMA4D) (human, UniProt Q92854 22-862).
T2 construct: whole, on cells; also called human SEMA4D recombinant cells
T2 sequence (looked up): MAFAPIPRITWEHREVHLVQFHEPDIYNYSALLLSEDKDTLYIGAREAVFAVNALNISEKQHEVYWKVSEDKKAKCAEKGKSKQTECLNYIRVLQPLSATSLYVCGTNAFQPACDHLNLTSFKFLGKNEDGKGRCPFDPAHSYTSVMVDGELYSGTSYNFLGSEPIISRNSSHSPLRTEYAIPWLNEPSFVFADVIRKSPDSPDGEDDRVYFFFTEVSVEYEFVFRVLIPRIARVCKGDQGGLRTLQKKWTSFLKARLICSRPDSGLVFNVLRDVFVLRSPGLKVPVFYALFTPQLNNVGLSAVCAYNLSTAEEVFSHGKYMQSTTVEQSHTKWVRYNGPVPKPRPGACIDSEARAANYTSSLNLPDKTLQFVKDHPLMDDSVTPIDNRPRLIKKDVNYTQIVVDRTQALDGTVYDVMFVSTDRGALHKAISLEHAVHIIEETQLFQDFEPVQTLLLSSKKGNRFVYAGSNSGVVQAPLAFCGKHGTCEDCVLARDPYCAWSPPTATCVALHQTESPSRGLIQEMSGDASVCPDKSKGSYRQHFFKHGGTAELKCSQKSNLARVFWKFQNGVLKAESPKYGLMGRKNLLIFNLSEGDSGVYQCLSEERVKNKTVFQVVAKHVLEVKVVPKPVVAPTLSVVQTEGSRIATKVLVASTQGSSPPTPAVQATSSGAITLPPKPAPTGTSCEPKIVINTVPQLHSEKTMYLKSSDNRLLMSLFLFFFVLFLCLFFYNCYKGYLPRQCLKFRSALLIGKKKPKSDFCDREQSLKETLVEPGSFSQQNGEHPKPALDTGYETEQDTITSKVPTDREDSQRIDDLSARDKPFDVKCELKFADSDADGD
In words: FACS, CHO-K1 hSEMA4D cells; Ab 0.00427 nM. The protocol: The medium was aspirated, the cells were washed once with PBS buffer (purchased from Invitrogen), and then treated with cell dissociation fluid (TrypLE™ Express Enzyme, purchased from Life technology), and the cells were collected. After the cells counted, the cells were washed once with PBS phosphate buffer, and diluted to 3×10⁶ cells per milliliter, and added to the 96-well FACS reaction plate as 100 μL per well. 2% (w/w) fetal calf serum was added to PBS phosphate buffer as FACS buffer, with which the cells were washed once by centrifugation at 2000 rpm 4° C. 100 μL of diluted and purified leading antibodies was added to each well and the plate was incubated for 1 hour on ice. […] Cells were washed 2 times by centrifugation with FACS buffer. The cells were suspended with 200 μL of FACS buffer, and FACS (FACS Verse, purchased from BD) was used to detect and analyze the results.

For assay [4], the target named is T3, hSEMA4D ECD-His (His-tagged human SEMA4D protein extracellular domain, Met22-Arg734) (human, UniProt Q92854 22-734).
T3 construct: Expressed in CHO-S cells, purified on Ni column; also called protein immunogen; immunogen A; not shown: His tag of the pCP vector
T3 sequence: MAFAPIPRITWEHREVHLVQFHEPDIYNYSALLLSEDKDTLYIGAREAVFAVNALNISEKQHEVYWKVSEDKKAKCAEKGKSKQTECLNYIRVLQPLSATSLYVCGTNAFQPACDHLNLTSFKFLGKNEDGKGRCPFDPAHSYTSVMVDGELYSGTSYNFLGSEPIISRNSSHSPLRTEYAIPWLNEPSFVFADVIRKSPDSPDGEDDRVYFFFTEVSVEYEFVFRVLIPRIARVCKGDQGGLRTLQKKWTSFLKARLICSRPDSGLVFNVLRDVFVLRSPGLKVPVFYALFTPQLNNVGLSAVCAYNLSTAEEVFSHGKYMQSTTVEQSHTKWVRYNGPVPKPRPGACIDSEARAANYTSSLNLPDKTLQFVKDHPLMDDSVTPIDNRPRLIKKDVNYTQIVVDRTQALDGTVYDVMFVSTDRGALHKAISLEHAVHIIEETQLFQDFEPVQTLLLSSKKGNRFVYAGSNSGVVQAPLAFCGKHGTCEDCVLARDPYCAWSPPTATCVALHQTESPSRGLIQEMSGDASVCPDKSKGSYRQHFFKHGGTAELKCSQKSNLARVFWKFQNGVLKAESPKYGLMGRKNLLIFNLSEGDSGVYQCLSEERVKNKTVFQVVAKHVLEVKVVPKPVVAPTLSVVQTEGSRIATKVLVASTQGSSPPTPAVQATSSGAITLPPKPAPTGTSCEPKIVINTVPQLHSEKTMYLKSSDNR
Description: ELISA, coated hSEMA4D ECD-His; Ab 0.00213 nM. Here is the method: First, hSEMA4D ECD-His was diluted with PBS to a final concentration of 1.0 μg/mL, and then was added to a 96-well ELISA plate, 100 μL per well, sealed with plastic film and incubated overnight at 4° C. On the next day, the plate was washed with a plate washing solution, that is, PBS buffer containing 0.05% (v/v) Tween20, for 4 times, and added with blocking solution, that is, PBS buffer containing 0.05% (v/v) Tween20 and 2% (w/w) BSA, blocked at 37° C. for 1 hour. The blocking solution was poured out and the plate was washed 4 times with the plate washing solution. 100 μL of the purified leading antibodies obtained in Examples 1 and 2 was added to each well. After incubation at 37° C. for 1 hour, the plate was washed 4 times with a plate washing solution. 100 μL of horseradish peroxidase (HRP) labeled secondary antibody (purchased from Sigma) was added at a dilution of 1:10000 to each well, and the plate was incubated at 37° C. for 1 hour, and washed 4 times with a plate washing solution. 100 μL TMB substrate was added to each well, and the plate was incubated at room temperature for 5 minutes, and added with 100 μL stop solution (1.0N HCl) to each well. A microplate reader (SpectraMax M5e, purchased from Molecular Device) was used to read the A450 nm value. […] Wherein, the data in the table was the OD450 nm value.
(In general: In an ELISA, binding on a coated surface is turned into a signal by an enzyme label.)

B1: 37C4F7 (antibody, V domains shown)
VH: EFQLQQSGPEVVKPGASVKISCKASGYSFTDYNMNWMKQSKGKSLEWIGVINPNYGTTTYNQNFKGKATLTVDQSSSTAYMQLNSLTSEDSAVYYCARDMYYVYAYYTMDYWGQGTSVTVSS
VL: DVVMTQTPLSLPVSLGDQASISCRSSQSLVHSNGHTYLHWYLQRPGQSPTLLIYKVSNRFSGVPDRFSGSGSGTDFTLKISRVEAEDLGVYFCSQGTHVPWTFGGGTKLEIK
notes: Mouse monoclonal antibody purified from hybridoma supernatant on protein A
Take B1: the MFI in assay [1] is 237; in assay [2], 760; in assay [3], 45.4. In assay [4], the OD450 nm turned out to be 0.0673.

B2: 38H2E3 (antibody, V domains shown)
VH: EFQLQQSGPEVVKPGASVKISCKASGYSFTDYNMNWMKQSKGKSLEWIGVISPDYGTTTYNQNFKDKATLTVDQSSSTAYMQLNSLTSEDSAVYYCAKDMYYVYAYYTMDYWGHGTSVTVSS
VL: DVVMTQTPLSLPVSLGDQASISCRSSQSLVHSNGHTYLHWYLQRPGQSPTLLIYKVSNRFSGVPDRVSGSGSGTDFTLKISRVEAEDLGVYFCSQGTHVPRTFGGGTKLEIK
notes: as for B1
As for B2, the MFI in assay [1] is 210; in assay [2], 601; in assay [3], 45.4. The molecule further registered an OD450 nm in assay [4] of 0.0738.

B3: 37F11F9 (antibody, V domains shown)
VH: EVQLQQSGPVLVKPGASVKMSCKASGYTFTDYYMNWVKQSHGKSLEWIGLINPYSGGSTFNQKFKAKATLTVDKSSSSAYMDLNSLTSEDSAVYYCARVGDGYYGVTHGMDYWGQGTSVTVSS
VL: DIVMTPSQKFMSTTVGDRVSITCKASQNVGTAVAWYQQKPGQSPTILIYSASNRYTGVPDRFTGSGSGTDFTLTISNMKSEDLADYFCQQYYIYPFTFAAGTKLELK
notes: as for B1
With B3, the MFI in assay [1] stood at 300; in assay [2], 925; in assay [3], 51. For the same molecule, the OD450 nm in assay [4] worked out at 0.0929.

B4: 32C8F10 (antibody, V domains shown)
VH: EVQLQQSGAELVRPGASVKLSCTASGFNIKDEYIHWVKQRPEQGLEWIGWIDPANGHTEYASRFQAKATITADTSSNTAYLQLSSLTSEDTAVYYCTTGDYDGFAYWGQGTLVTVST
VL: QIVLTQSPAIMSASPGEKVTISCSARSSVSYMYWYQQKPGSSPKPWIYRTSNLASGVPARFSGSGSGTSYSLTISSMEAEDAATYYCQHYHTYPYTFGGGTKLEIK
notes: as for B1
As for B4, the MFI in assay [1] was found to be 1010; in assay [2], 2930; in assay [3] it was 86.2. Moreover, in assay [4], the OD450 nm stood at 0.0858.

B5: 31G10C5 (antibody, V domains shown)
VH: EVQLQQSGAELVRPGASVKLSCTASGFNIKDDYIHWVKQRPEQGLEWIGWIDPANGHIEYASNFQAKATITADTSSNTAYLQLSSLTSEDTAVYYCTTGDYDGFTYWGQGTLVTVST
VL: QIVLTQSPAIMSASPGEKVTISCSARSSVSYMYWYQQKPGSSPKPWIYRTSNLASGVPARFSGSGSGTSYSLTISSMEAEDAATYYCQHYHTYPYTFGGGTKLEIK
notes: as for B1
As for B5, the MFI in assay [1] came out at 1310; in assay [2], 3490; in assay [3], 85.5. This molecule also yielded an OD450 nm in assay [4] of 0.109.

B6: 31C11G2 (antibody, V domains shown)
VH: EVQLQQSGAELVRPGASVKLSCTASGFNIKDEYIHWVKQRPEQGLEWIGWIDPANGHTEYASRFQAKATITADTSSNTAYLQLSSLTSEDTAVYYCTTGDYDGFVYWGQGTLVTVST
VL: QIVLTQSPAIMSASPGEKVTIFCSARSSVSYMYWYQQKPGSSPKPWIYRTSNLASGVPARFSGSGSGTSYSLTISSMEAEDAATYYCQHYHTYPYTFGGGTKLEIK
notes: as for B1
As to B6, the MFI in assay [1] was determined as 1210; in assay [2] it was 2980; in assay [3], 87.3. This molecule also came in with an OD450 nm in assay [4] of 0.141.

B7: 42B7G2 (antibody, V domains shown)
VH: QVQLQQSGAELARPGASVKLSCKASGYTFTDYGISWVKQRTGQGLEWIGEIYLRNDNSYYNEKFKGKATLTADKSSNTAYMELRSLTSEDSAVYFCARWGDHGNNYEDAMDYWGQGTSVTVSS
VL: DIVLTQSPASLAMSLGKRATISCRASESVSIIGSNLIHWYQQKPGQPPKLLIYHASNLETGVPARFSGSGSRTDFTLTIDPVEEDDVAIYYCLQSRKVPYTFGGGTKLEIK
notes: as for B1
For the molecule B7, the MFI came out at 793 in assay [1], 1690 in assay [2] and 68.9 in assay [3]. Besides, in assay [4], the OD450 nm was 0.11.
